Assay results as given in patent publication US20240209039A1 (RIKEN, published 2024).

Legend:
[1] = molecular target: the molecule itself; assay: pseudo-native PAGE, self-association (homodimer), FIG. 17
[2] = molecular target: the molecule itself; assay: pseudo-native PAGE (10% acrylamide, 0.1% SDS, no heat treatment), self-association
Experimental: After purification of the proteins with use of Ni-NTA, pseudo-native PAGE was carried out. The separation gel contained 10% acrylamide and 0.1% SDS. The sample buffer contained 2% SDS and 100 mM DTT. No heat treatment was carried out.

Protein | binding result [1] | binding result [2]
StayGold (CU17S/V168A mutant) (other, Made in E. coli JM109 (DE3) and purified on Ni-NTA; also called StayGold (dimer); not shown: N-terminal histidine tag from the pRSETB vector (purified on Ni-NTA)) MASTPFKFQLKGTINGKSFTVEGEGEGNSHEGSHKGKYVCTSGKLPMSWAALGTSFGYGMKYYTKYPSGLKNWFHEVMPEGFTYDRHIQYKGDGSIHAKHQHFMKNGTYHNIVEFTGQDFKENSPVLTGDMNVSLPNEVQHIPRDDGVECPVTLLYPLLSDKSKCVEAHQNTICKPLHNQPAPDVPYHWIRKQYTQSKDDTEERDHICQSETLEAHL | binds | 
StayGold Y187A (other, not shown: histidine tag implied by Ni-NTA purification) MASTPFKFQLKGTINGKSFTVEGEGEGNSHEGSHKGKYVCTSGKLPMSWAALGTSFGYGMKYYTKYPSGLKNWFHEVMPEGFTYDRHIQYKGDGSIHAKHQHFMKNGTYHNIVEFTGQDFKENSPVLTGDMNVSLPNEVQHIPRDDGVECPVTLLYPLLSDKSKCVEAHQNTICKPLHNQPAPDVPAHWIRKQYTQSKDDTEERDHICQSETLEAHL |  | no binding
StayGold L155T (other, not shown: histidine tag implied by Ni-NTA purification) MASTPFKFQLKGTINGKSFTVEGEGEGNSHEGSHKGKYVCTSGKLPMSWAALGTSFGYGMKYYTKYPSGLKNWFHEVMPEGFTYDRHIQYKGDGSIHAKHQHFMKNGTYHNIVEFTGQDFKENSPVLTGDMNVSLPNEVQHIPRDDGVECPVTLTYPLLSDKSKCVEAHQNTICKPLHNQPAPDVPYHWIRKQYTQSKDDTEERDHICQSETLEAHL |  | no binding
